From patent US20160272683A1 (Novo Nordisk, published 2016)
Numbered stars: 1 amine (or outer) side, 2 acyl side, 3 side chain; on linkers, the order of the positions; unused ones are H or OH. Square brackets hold non-standard residues; d marks the D form. * marks the point of attachment. C20 diacid = O=C(O)CCCCCCCCCCCCCCCCCCC(=O)*; γGlu = O=C(O)[C@H](CCC(=O)[*:2])N[*:1]; AEEA = NCCOCCOCC(=O)O

T1: human amylin receptor (amylin 3(a) receptor: human calcitonin receptor with RAMP-3) (human, UniProt P30988 25-474; O60896 24-148, limits assumed)
T1 construct: whole, on cells; Assay V: membranes of the Amylin 3(a)/CRE-luc BHK cells on SPA beads; also called hAmylin-R
T1 sequence (looked up) 1: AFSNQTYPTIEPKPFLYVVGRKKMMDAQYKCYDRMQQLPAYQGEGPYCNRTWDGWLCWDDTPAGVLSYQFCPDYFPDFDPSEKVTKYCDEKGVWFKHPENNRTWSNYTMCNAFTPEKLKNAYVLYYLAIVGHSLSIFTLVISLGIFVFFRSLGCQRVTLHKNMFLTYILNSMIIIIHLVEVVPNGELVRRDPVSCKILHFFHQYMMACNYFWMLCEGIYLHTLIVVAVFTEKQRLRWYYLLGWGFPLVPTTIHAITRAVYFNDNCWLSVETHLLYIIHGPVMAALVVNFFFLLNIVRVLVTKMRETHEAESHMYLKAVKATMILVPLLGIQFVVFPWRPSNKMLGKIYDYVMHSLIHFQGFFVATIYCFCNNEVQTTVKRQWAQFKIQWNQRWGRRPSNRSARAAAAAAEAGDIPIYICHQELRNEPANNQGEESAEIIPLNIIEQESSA
T1 sequence (looked up) 2: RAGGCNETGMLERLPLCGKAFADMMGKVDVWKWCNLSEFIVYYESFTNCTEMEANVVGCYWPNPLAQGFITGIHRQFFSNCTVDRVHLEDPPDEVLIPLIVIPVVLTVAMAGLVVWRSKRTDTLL

T2: human calcitonin receptor (human, UniProt P30988 25-474)
T2 construct: whole, on cells; Assay VII: membranes on SPA beads; also called hCT-R; hCTR
T2 sequence (looked up): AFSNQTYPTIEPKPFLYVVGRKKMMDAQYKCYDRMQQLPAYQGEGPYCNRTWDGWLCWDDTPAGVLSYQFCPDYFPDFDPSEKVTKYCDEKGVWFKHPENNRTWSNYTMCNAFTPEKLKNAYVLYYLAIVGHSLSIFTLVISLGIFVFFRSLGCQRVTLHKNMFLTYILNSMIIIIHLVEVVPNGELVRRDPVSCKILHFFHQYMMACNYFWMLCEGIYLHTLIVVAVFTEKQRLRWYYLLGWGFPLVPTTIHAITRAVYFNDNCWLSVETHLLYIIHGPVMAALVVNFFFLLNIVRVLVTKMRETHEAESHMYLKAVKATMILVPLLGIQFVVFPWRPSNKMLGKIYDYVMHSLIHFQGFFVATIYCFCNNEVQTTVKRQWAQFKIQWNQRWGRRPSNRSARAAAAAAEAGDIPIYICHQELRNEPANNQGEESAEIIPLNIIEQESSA


Columns and labels:
[1] = molecular target: T1, human amylin receptor (amylin 3(a) …); test: SPA competition vs 125I-rat amylin, membranes with human CTR + RAMP-3 (Assay V)
Protocol: The binding assay was performed using scintillation proximity assay (SPA) beads (RPNQ0001) from PerkinElmer and cell membranes from the Amylin 3(a)/CRE-luc cells (as described in Assay (II)) were used. Membranes were prepared in the following way; the cells were rinsed with PBS and incubated with Versene for approximately 5 min before harvesting. The cells were flushed with PBS and the cell-suspension was centrifuged for 5 min at 1000 rpm. […] The resulting pellet was resuspended in buffer 2 and protein concentration was tested (BCA protein Assay, Pierce). The homogenate was kept cold during the whole procedure. The membranes were kept at −80° C. until use. The assay was performed in a 384 well Optiplate (PerkinElmer) in a total volume of 40 ul. Membranes were mixed with SPA beads. Final concentration of membranes 35 ng/μL final and SPA beads was 0.05 mg/well. Test-compounds were dissolved in DMSO and further diluted in assay buffer (50 mM Hepes, pH 7.4, 1 mM CaCl2, 5 mM MgCl2, 0.1% OA and 0.02% Tween20). […] Samples were analyzed on TopCounter™ (Packard). The IC₅₀ was calculated using (one site binding competition analysis) GraphPad Prism5 as a measure of receptor affinity.

[2] = molecular target: T2, human calcitonin receptor; test: SPA competition vs 125I-calcitonin, membranes with human CTR (Assay VII)
Protocol: The binding assay was performed using scintillation proximity assay (SPA) beads (RPNQ0001) from PerkinElmer® and cell membranes prepared from a BHK tk'ts 13 cell line was stably transfected with the human calcitonin receptor and a CRE-responsive luciferase reporter gene. Membranes were prepared in the following way; the cells were rinsed with PBS and incubated with Versene for approximately 5 min before harvesting. The cells were flushed with PBS and the cell-suspension was centrifuged for 5 min at 1000 rpm.
EDTA (pH 7.4, buffer 2). The resulting pellet was resuspended in buffer 2 and protein concentration was tested (BCA protein Assay, Pierce). The homogenate was kept cold during the whole procedure. The membranes were kept at −80° C. until use. Assay was performed in a 384 well Optiplate (PerkinElmer®) in a total volume of 40 ul. Membranes were mixed with SPA beads. Final concentration of membranes 35 ng/μL final and Final concentration of SPA beads was 0.05 mg/well. Test-compounds were dissolved in DMSO and further diluted in assay buffer (50 mM Hepes, pH 7.4, 1 mM CaCl2, 5 mM MgCl2, 0.1% OA and 0.02% Tween20). […] Samples were analyzed on TopCounter™ (Packard). The IC₅₀ was calculated using (one site binding competition analysis) GraphPad Prism5 as a measure of receptor affinity.

| Binder | IC50 [1] [pM] | IC50 [2] [pM] |
| --- | --- | --- |
| {C20 diacid-γGlu-AEEA}-ASELSTAALGRLSAELHELATLPRTETGSGSP-NH2 (mimylin derivative; des1 = residue 1 deleted; also called Ex. #41; 41) [[N-terminal(C20 diacid-gGlu-OEG), des1, 30S, 31G]mimylin] | 141 | 85 |
| {C20 diacid-γGlu}-ASELSTAALGHLSAELHELATLPRTETGSGSP-NH2 (mimylin derivative; also called Ex. #72; 72) [[N-terminal(C20 diacid-gGlu), des1, 12H, 30S, 31G]mimylin] | 565 | 97 |

More lines, in order of falling IC50 [1], values ahead:

| IC50 [1] [pM] | IC50 [2] [pM] | Binder |
| --- | --- | --- |
| 171 | 100 | {C20 diacid-γGlu}-ASELSTASLGRLSAELHELSTYPRTETGSGSY-NH2 (SMILES CC(C)C[C@H](NC(=O)[C@H](CO)NC(=O)[C@H](C)NC(=O)[C@@H](NC(=O)[C@H](CO)NC(=O)[C@H](CC(C)C)NC(=O)[C@H](CCC(=O)O)NC(=O)[C@H](CO)NC(=O)[C@H](C)NC(=O)CC[C@H](NC(=O)CCCCCCCCCCCCCCCCCCC(=O)O)C(=O)O)[C@@H](C)O)C(=O)NCC(=O)N[C@@H](CCCNC(=N)N)C(=O)N[C@@H](CC(C)C)C(=O)N[C@@H](CO)C(=O)N[C@@H](C)C(=O)N[C@@H](CCC(=O)O)C(=O)N[C@@H](CC(C)C)C(=O)N[C@@H](Cc1c[nH]cn1)C(=O)N[C@@H](CCC(=O)O)C(=O)N[C@@H](CC(C)C)C(=O)N[C@@H](CO)C(=O)N[C@H](C(=O)N[C@@H](Cc1ccc(O)cc1)C(=O)N1CCC[C@H]1C(=O)N[C@@H](CCCNC(=N)N)C(=O)N[C@H](C(=O)N[C@@H](CCC(=O)O)C(=O)N[C@H](C(=O)NCC(=O)N[C@@H](CO)C(=O)NCC(=O)N[C@@H](CO)C(=O)N[C@@H](Cc1ccc(O)cc1)C(N)=O)[C@@H](C)O)[C@@H](C)O)[C@@H](C)O, mimylin derivative; des1 = residue 1 deleted; also called Ex. #100; 100) [[N-terminal(C20 diacid-gGlu), des1, 9S, 21S, 23Y, 30S, 31G, 33Y]mimylin] |
| 29 | 22 | {C20 diacid-γGlu}-ASELSTAALGRLS[dE]ELHELATLPRTETGSGSP-NH2 (SMILES CC(C)C[C@H](NC(=O)[C@H](C)NC(=O)[C@H](C)NC(=O)[C@@H](NC(=O)[C@H](CO)NC(=O)[C@H](CC(C)C)NC(=O)[C@H](CCC(=O)O)NC(=O)[C@H](CO)NC(=O)[C@H](C)NC(=O)CC[C@H](NC(=O)CCCCCCCCCCCCCCCCCCC(=O)O)C(=O)O)[C@@H](C)O)C(=O)NCC(=O)N[C@@H](CCCNC(=N)N)C(=O)N[C@@H](CC(C)C)C(=O)N[C@@H](CO)C(=O)N[C@H](CCC(=O)O)C(=O)N[C@@H](CCC(=O)O)C(=O)N[C@@H](CC(C)C)C(=O)N[C@@H](Cc1c[nH]cn1)C(=O)N[C@@H](CCC(=O)O)C(=O)N[C@@H](CC(C)C)C(=O)N[C@@H](C)C(=O)N[C@H](C(=O)N[C@@H](CC(C)C)C(=O)N1CCC[C@H]1C(=O)N[C@@H](CCCNC(=N)N)C(=O)N[C@H](C(=O)N[C@@H](CCC(=O)O)C(=O)N[C@H](C(=O)NCC(=O)N[C@@H](CO)C(=O)NCC(=O)N[C@@H](CO)C(=O)N1CCC[C@H]1C(N)=O)[C@@H](C)O)[C@@H](C)O)[C@@H](C)O, mimylin derivative; des1 = residue 1 deleted; lower case e = D-form of Glu; also called Ex. #67; 67) [[N-terminal(C20 diacid-gGlu), des1, 15e, 30S, 31G]mimylin] |
